# Laboratory results reported in patent publication EP3366704A1 (Affimed GmbH, dated 2018).
# Legend:
# [1] = target: T1, MMP1-003 peptide/HLA-A2 complex (on MMP1-003 peptide-pulsed T2 cells or HLA-A2+/MMP1+ tumor cells) (human); experiment: flow cytometry on MMP1-003 peptide-pulsed T2 cells
# T1 construct: whole, on cells; T2 cells were pulsed with 100 uM peptide for 15 h at 37 C; also called MMP1/HLA-A2; HLA-A2^MMP1-003
# [2] = target: T1, MMP1-003 peptide/HLA-A2 complex (on …); experiment: cell-based or functional assay
# [3] = target: T2, human CD3 (on Jurkat cells or primary human T-cells) (human, UniProt P07766 23-207); experiment: flow cytometry on human CD3+ primary T-cells, on ice, one-site binding fit, mean of 2 experiments
# T2 construct: whole, on cells; CD3 is a complex of several chains; also called Human CD3^+ Jurkat; Human CD3^+ primary T-cells
# [4] = target: T2, human CD3 (on Jurkat cells or primary …); experiment: flow cytometry on human CD3+ Jurkat cells, on ice, one-site binding fit, mean of 2 experiments
# [5] = target: T1, MMP1-003 peptide/HLA-A2 complex (on …); experiment: cell-based or functional assay; remark: listed apart in the source
# [6] = target: T3, cynomolgus CD3 (on HSC-F cells) (cynomolgus, UniProt Q95LI5 22-198); experiment: flow cytometry on cynomolgus CD3+ HSC-F cells, on ice, one-site binding fit, mean of 2 experiments
# T3 construct: whole, on cells; CD3 is a complex of several chains; also called Cyno CD3^+ HSC-F
# [7] = target: T1, MMP1-003 peptide/HLA-A2 complex (on …); experiment: flow cytometry on MMP1-003 peptide-pulsed T2 cells, mean of two experiments
# [8] = target: T4, HLA-A2 on non-pulsed T2 cells (no peptide added) (human); experiment: flow cytometry on non-pulsed T2 cells, mean of two experiments
# T4 construct: whole, on cells
# [9] = target: T5, CD16A (FcgammaRIIIA) on primary human NK-cells (human, UniProt P08637 17-254); experiment: flow cytometry on primary human NK-cells, on ice, one-site binding fit, mean of two experiments
# T5 construct: whole, on cells; also called CD16^+ NK-cells; CD16A^+ cells
# [10] = target: T1, MMP1-003 peptide/HLA-A2 complex (on …); experiment: cell-based or functional assay; remark: listed apart in the source
# [11] = target: T1, MMP1-003 peptide/HLA-A2 complex (on …); experiment: cell-based or functional assay; remark: listed apart in the source
# [12] = target: T3, cynomolgus CD3 (on HSC-F cells); experiment: flow cytometry on cynomolgus CD3+ HSC-F cells, on ice
# [13] = target: T2, human CD3 (on Jurkat cells or primary …); experiment: flow cytometry on human CD3+ Jurkat cells, on ice
# T2 sequence (P07766 23-207): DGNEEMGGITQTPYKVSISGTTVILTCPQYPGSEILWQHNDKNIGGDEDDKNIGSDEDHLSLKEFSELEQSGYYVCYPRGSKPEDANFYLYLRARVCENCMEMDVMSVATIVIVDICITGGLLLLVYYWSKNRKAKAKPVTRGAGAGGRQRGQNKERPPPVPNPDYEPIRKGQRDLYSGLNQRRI
# T5 sequence (P08637 17-254): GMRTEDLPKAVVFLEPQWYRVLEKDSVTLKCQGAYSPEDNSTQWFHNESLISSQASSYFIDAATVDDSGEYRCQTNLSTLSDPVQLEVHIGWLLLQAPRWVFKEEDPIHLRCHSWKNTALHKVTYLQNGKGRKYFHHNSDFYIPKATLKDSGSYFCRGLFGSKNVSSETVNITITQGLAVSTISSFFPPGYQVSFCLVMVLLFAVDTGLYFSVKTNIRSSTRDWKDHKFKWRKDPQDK
# T3 sequence (Q95LI5 22-198): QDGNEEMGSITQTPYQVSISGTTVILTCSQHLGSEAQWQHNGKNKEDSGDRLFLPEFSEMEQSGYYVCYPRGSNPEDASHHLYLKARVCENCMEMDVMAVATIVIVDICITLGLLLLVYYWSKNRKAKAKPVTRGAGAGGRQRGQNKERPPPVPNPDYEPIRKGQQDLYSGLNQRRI
Binder,Kd [7],Kd [9],"Mean EC50 of target cell lysis, 4 h calcein-release assay, B-CPAP (HLA-A2+/MMP1+), human NK-cells E:T 5:1 [10]","Mean EC50 of target cell lysis, 4 h calcein-release assay, SW-982 (HLA-A2+/MMP1+), human NK-cells E:T 5:1 [10]","Mean EC50 of target cell lysis, 4 h calcein-release assay, MMP1-003-pulsed T2 cells, human NK-cells E:T 5:1 [11]",further results
"TandAbCD3 1 (anti-HLA-A2^MMP1-003/CD3 tandem diabody, target domain B05) (bispecific antibody, Non-covalent homodimer of two identical polypeptides; Constructs carry a C-terminal 6xHis tag and an N-terminal signal peptide; also called TandAbCD3 1 T714; TandAb 1) DIQMTQSPSSLSASVGDRVTITCRSSTGAVTTSNYANWVQQKPGKAPKALIGGTNKRAPGVPSRFSGSLIGDKATLTISSLQPEDFATYYCALWYSNLWVFGQGTKVEIKGGSGGSQVQLVQSGAEAKKPGESLRISCRASGYMFSTFWIGWVRQMPGKGLEWVASIYPGDSNTIYSPSFQGQVTISADKSINTTYLQWSGLKASDTATYYCAKIRDGYSYDAFDLWGQGTMVTVSSGGSGQSALTQPASVSGSPGQSITISCTGTSSDVGGYNYVSWYQQHPGKAPKLMIYDVSNRPSGVSNRFSGSKSGNTASLTISGLQAEDEADYYCSSYTSSSTLAYVFGTGTKLTVLGGSGGSEVQLVESGGGLVQPGGSLRLSCAASGFTFSTYAMNWVRQAPGKGLEWVGRIRSKYNNYATYYADSVKDRFTISRDDSKNSLYLQMNSLKTEDTAVYYCARHGNFGNSYVSYFAYWGQGTLVTVSSAAAGSHHHHHH",3 nM,–,–,–,–,"fold higher apparent affinity relative to the B05 single chain Fv (scFv) [1]: > 200 fold; Mean EC50 of target cell lysis, 4 h calcein-release assay, B-CPAP (HLA-A2+/MMP1+), human T-cells E:T 25:1 [2]: 0.237 nM; Mean EC50 of target cell lysis, 4 h calcein-release assay, SW-982 (HLA-A2+/MMP1+), human T-cells E:T 25:1 [2]: 0.156 nM; Kd [3]: 1.7 nM; Kd [4]: 1.1 nM; EC50 of target cell lysis, 4 h calcein-release cytotoxicity assay, MMP1-003-pulsed T2 cells, human T-cells E:T 25:1 [5]: 0.0007 nM; Kd [6]: 1.3 nM"
"TandAbCD3 2 (anti-HLA-A2^MMP1-003/CD3 tandem diabody, target domain A02) (bispecific antibody, Non-covalent homodimer; C-terminal 6xHis tag; also called TandAbCD3 2 T717; T717) DIQMTQSPSSLSASVGDRVTITCRSSTGAVTTSNYANWVQQKPGKAPKALIGGTNKRAPGVPSRFSGSLIGDKATLTISSLQPEDFATYYCALWYSNLWVFGQGTKVEIKGGSGGSEVQLVESGGGVVQPGRSLRLSCAASGFTFSSYAMHWVRQAPGKGLEWVAVISYDGSNKYYADSVKGRFTISRDNSKNTLYLQMNSLRTEDTAVYYCARDGGYYHYGLDVWGQGTTVTVSSGGSGSYELTQPPSVSVSPGQTASITCSGDKLGDKYASWYQRKPGQSPVLLIYQDAKRPSGIPERFSGSNSGNTATLTISGTQAMDEADYYCQAWDSSTGVFGGGTKLTVLGGSGGSEVQLVESGGGLVQPGGSLRLSCAASGFTFSTYAMNWVRQAPGKGLEWVGRIRSKYNNYATYYADSVKDRFTISRDDSKNSLYLQMNSLKTEDTAVYYCARHGNFGNSYVSYFAYWGQGTLVTVSSAAAGSHHHHHH",39.2 nM,–,–,–,–,"fold higher apparent affinity than the corresponding scFv A02 [1]: > 2 fold; Mean EC50 of target cell lysis, 4 h calcein-release assay, B-CPAP (HLA-A2+/MMP1+), human T-cells E:T 25:1 [2]: 0.0669 nM; Mean EC50 of target cell lysis, 4 h calcein-release assay, SW-982 (HLA-A2+/MMP1+), human T-cells E:T 25:1 [2]: 0.0302 nM; Kd [3]: 2.2 nM; Kd [4]: 3.6 nM; EC50 of target cell lysis, 4 h calcein-release cytotoxicity assay, MMP1-003-pulsed T2 cells, human T-cells E:T 25:1 [5]: 0.0009 nM; Kd [6]: 2.8 nM; Kd [8]: > 500 nM"
"TandAbCD16A 1 (anti-HLA-A2^MMP1-003/CD16A tandem diabody, target domain A02, variant 2) (bispecific antibody, Non-covalent homodimer; Variant 2: VH(CD16A)-L1-VL(A02)-L2-VH(A02)-L3-VL(CD16A); C-terminal 6xHis tag) QVQLVQSGAEVKKPGESLKVSCKASGYTFTSYYMHWVRQAPGQGLEWMGAIEPMYGSTSYAQKFQGRVTMTRDTSTSTVYMELSSLRSEDTAVYYCARGSAYYYDFADYWGQGTLVTVSSGGSGGSGGSSYELTQPPSVSVSPGQTASITCSGDKLGDKYASWYQRKPGQSPVLLIYQDAKRPSGIPERFSGSNSGNTATLTISGTQAMDEADYYCQAWDSSTGVFGGGTKLTVLGGSGGSEVQLVESGGGVVQPGRSLRLSCAASGFTFSSYAMHWVRQAPGKGLEWVAVISYDGSNKYYADSVKGRFTISRDNSKNTLYLQMNSLRTEDTAVYYCARDGGYYHYGLDVWGQGTTVTVSSGGSGGSGGSSYVLTQPSSVSVAPGQTATISCGGHNIGSKNVHWYQQRPGQSPVLVIYQDNKRPSGIPERFSGSNSGNTATLTISGTQAMDEADYYCQVWDNYSVLFGGGTKLTVLAAAGSHHHHHH",–,5.1 nM,2.61 nM,4.29 nM,0.0147 nM,–
"TandAbCD16A 2 (anti-HLA-A2^MMP1-003/CD16A tandem diabody, target domain B05, variant 2) (bispecific antibody, Non-covalent homodimer; C-terminal 6xHis tag) QVQLVQSGAEVKKPGESLKVSCKASGYTFTSYYMHWVRQAPGQGLEWMGAIEPMYGSTSYAQKFQGRVTMTRDTSTSTVYMELSSLRSEDTAVYYCARGSAYYYDFADYWGQGTLVTVSSGGSGGSGGSQSALTQPASVSGSPGQSITISCTGTSSDVGGYNYVSWYQQHPGKAPKLMIYDVSNRPSGVSNRFSGSKSGNTASLTISGLQAEDEADYYCSSYTSSSTLAYVFGTGTKLTVLGGSGGSQVQLVQSGAEAKKPGESLRISCRASGYMFSTFWIGWVRQMPGKGLEWVASIYPGDSNTIYSPSFQGQVTISADKSINTTYLQWSGLKASDTATYYCAKIRDGYSYDAFDLWGQGTMVTVSSGGSGGSGGSSYVLTQPSSVSVAPGQTATISCGGHNIGSKNVHWYQQRPGQSPVLVIYQDNKRPSGIPERFSGSNSGNTATLTISGTQAMDEADYYCQVWDNYSVLFGGGTKLTVLAAAGSHHHHHH",–,3.7 nM,1.69 nM,2.86 nM,0.0209 nM,–
"TandAbCD16A 3 (anti-HLA-A2^MMP1-003/CD16A tandem diabody, target domain A02, variant 4) (bispecific antibody, Non-covalent homodimer; Variant 4: VH(A02)-L1-VL(CD16A)-L2-VH(CD16A)-L3-VL(A02); C-terminal 6xHis tag) EVQLVESGGGVVQPGRSLRLSCAASGFTFSSYAMHWVRQAPGKGLEWVAVISYDGSNKYYADSVKGRFTISRDNSKNTLYLQMNSLRTEDTAVYYCARDGGYYHYGLDVWGQGTTVTVSSGGSGGSGGSSYVLTQPSSVSVAPGQTATISCGGHNIGSKNVHWYQQRPGQSPVLVIYQDNKRPSGIPERFSGSNSGNTATLTISGTQAMDEADYYCQVWDNYSVLFGGGTKLTVLGGSGGSQVQLVQSGAEVKKPGESLKVSCKASGYTFTSYYMHWVRQAPGQGLEWMGAIEPMYGSTSYAQKFQGRVTMTRDTSTSTVYMELSSLRSEDTAVYYCARGSAYYYDFADYWGQGTLVTVSSGGSGGSGGSSYELTQPPSVSVSPGQTASITCSGDKLGDKYASWYQRKPGQSPVLLIYQDAKRPSGIPERFSGSNSGNTATLTISGTQAMDEADYYCQAWDSSTGVFGGGTKLTVLAAAGSHHHHHH",–,3.1 nM,0.996 nM,1.16 nM,0.0057 nM,–
"TandAbCD16A 4 (anti-HLA-A2^MMP1-003/CD16A tandem diabody, target domain B05, variant 4) (bispecific antibody, Non-covalent homodimer; C-terminal 6xHis tag) QVQLVQSGAEAKKPGESLRISCRASGYMFSTFWIGWVRQMPGKGLEWVASIYPGDSNTIYSPSFQGQVTISADKSINTTYLQWSGLKASDTATYYCAKIRDGYSYDAFDLWGQGTMVTVSSGGSGGSGGSSYVLTQPSSVSVAPGQTATISCGGHNIGSKNVHWYQQRPGQSPVLVIYQDNKRPSGIPERFSGSNSGNTATLTISGTQAMDEADYYCQVWDNYSVLFGGGTKLTVLGGSGGSQVQLVQSGAEVKKPGESLKVSCKASGYTFTSYYMHWVRQAPGQGLEWMGAIEPMYGSTSYAQKFQGRVTMTRDTSTSTVYMELSSLRSEDTAVYYCARGSAYYYDFADYWGQGTLVTVSSGGSGGSGGSQSALTQPASVSGSPGQSITISCTGTSSDVGGYNYVSWYQQHPGKAPKLMIYDVSNRPSGVSNRFSGSKSGNTASLTISGLQAEDEADYYCSSYTSSSTLAYVFGTGTKLTVLAAAGSHHHHHH",–,5.3 nM,4.8 nM,4.67 nM,0.0088 nM,–
"scFv B05 (anti-HLA-A2^MMP1-003 single chain Fv) (scFv, also called B05 scFv; scFv_202.S) scFv: QVQLVQSGAEAKKPGESLRISCRASGYMFSTFWIGWVRQMPGKGLEWVASIYPGDSNTIYSPSFQGQVTISADKSINTTYLQWSGLKASDTATYYCAKIRDGYSYDAFDLWGQGTMVTVSSGGSGGSGGSGGSGGSGGSQSALTQPASVSGSPGQSITISCTGTSSDVGGYNYVSWYQQHPGKAPKLMIYDVSNRPSGVSNRFSGSKSGNTASLTISGLQAEDEADYYCSSYTSSSTLAYVFGTGTKLTVLAAAGSEQKLISEEDLNSHHHHHH",616 nM,–,–,–,–,binding result [12]: no binding; binding result [13]: no binding
"scFv A02 (anti-HLA-A2^MMP1-003 single chain Fv) (scFv, also called A02 scFv; scFv_203.S) scFv: EVQLVESGGGVVQPGRSLRLSCAASGFTFSSYAMHWVRQAPGKGLEWVAVISYDGSNKYYADSVKGRFTISRDNSKNTLYLQMNSLRTEDTAVYYCARDGGYYHYGLDVWGQGTTVTVSSGGSGGSGGSGGSGGSGGSSYELTQPPSVSVSPGQTASITCSGDKLGDKYASWYQRKPGQSPVLLIYQDAKRPSGIPERFSGSNSGNTATLTISGTQAMDEADYYCQAWDSSTGVFGGGTKLTVLAAAGSEQKLISEEDLNSHHHHHH",108 nM,–,–,–,–,binding result [12]: no binding; binding result [13]: no binding
